The target in experiment [1] is T1, epitope region-containing peptide fragment (AFPPEVIGPLFFFPLLYMIFQLGEG-biotin) (C-terminal biotin).
T1 peptide: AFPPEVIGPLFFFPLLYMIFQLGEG
The experiment is described as follows: SPR (BIAcore 2000, 25 C); antibody captured via anti-human IgG on CM5, peptide as analyte; 1:1 Langmuir fit. Background: In SPR one partner is held on a chip, and binding of the other changes the refractive index at the surface.
Method: (§1) In short, a carboxymethylated dextran biosensor chip (CM5, BIAcore Inc.) was activated by N-ethyl-N′-(3-dimethylaminopropyl)-carbodiimide hydrochloride (EDC) and N-hydroxysuccinimide (NHS) in accordance with the provider's instruction. An anti-mouse IgG antibody was diluted with 10 mM sodium acetate (pH5.2) up to 30 μg/ml. The dilution was injected at a flow rate of 5 to 10 μl/minute such that the reaction unit (RU) of the protein bound became 9,000 to 14,000 RU. […] The diluted antibody was injected at a flow rate of 5 to 10 μl/minute such that the reaction unit (RU) of the protein bound became 9,000 to 14,000 RU. After injection of each of the anti IgG antibodies, 1 M ethanolamine was injected in order to block unreactive groups. […] To the chip, a solution of an epitope region-containing peptide fragment diluted with the running buffers at different concentrations was added at 25° C. at a flow rate of 10 μl/minute for 2 minutes.
(§2) Using simple one-to-one Langmuir binding model (BIAcore Evaluation software version 3.1) by fitting sensor grams of antigen-antibody association and dissociation at the same time, association rate (Ka) and dissociation rate (Kd) were calculated. A Kd/Ka ratio was calculated to obtain an equilibrium dissociation constant (KD).

Experiment [2] has as its target T2, wild-type human sodium taurocholate cotransporting polypeptide (human NTCP) (human, UniProt Q14973 1-349).
T2 sequence: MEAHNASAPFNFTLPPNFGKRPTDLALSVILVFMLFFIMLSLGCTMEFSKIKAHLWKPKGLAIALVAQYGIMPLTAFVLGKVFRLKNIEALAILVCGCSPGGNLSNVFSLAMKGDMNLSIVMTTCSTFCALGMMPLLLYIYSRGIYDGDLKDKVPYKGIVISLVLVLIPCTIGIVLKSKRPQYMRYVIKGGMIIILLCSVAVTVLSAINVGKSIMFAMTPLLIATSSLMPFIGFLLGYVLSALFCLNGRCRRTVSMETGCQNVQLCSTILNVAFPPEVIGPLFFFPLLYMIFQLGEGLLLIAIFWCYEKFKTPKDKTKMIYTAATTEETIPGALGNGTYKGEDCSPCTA
The experiment in a line: cell-based or functional assay.

Experiment [3] deals with T1, epitope region-containing peptide …. The experiment is described as follows: SPR (BIAcore 2000, 25 C); antibody captured via anti-mouse IgG on CM5, peptide as analyte; 1:1 Langmuir fit.
Method: as §1, §2

Several values for one entry are separate records, joined by “and”; a condition that tells them apart may be missing. Equal entries are not always repeated.

B1: Recombinant N6HB426 human chimeric IgG4 antibody (antibody)
heavy: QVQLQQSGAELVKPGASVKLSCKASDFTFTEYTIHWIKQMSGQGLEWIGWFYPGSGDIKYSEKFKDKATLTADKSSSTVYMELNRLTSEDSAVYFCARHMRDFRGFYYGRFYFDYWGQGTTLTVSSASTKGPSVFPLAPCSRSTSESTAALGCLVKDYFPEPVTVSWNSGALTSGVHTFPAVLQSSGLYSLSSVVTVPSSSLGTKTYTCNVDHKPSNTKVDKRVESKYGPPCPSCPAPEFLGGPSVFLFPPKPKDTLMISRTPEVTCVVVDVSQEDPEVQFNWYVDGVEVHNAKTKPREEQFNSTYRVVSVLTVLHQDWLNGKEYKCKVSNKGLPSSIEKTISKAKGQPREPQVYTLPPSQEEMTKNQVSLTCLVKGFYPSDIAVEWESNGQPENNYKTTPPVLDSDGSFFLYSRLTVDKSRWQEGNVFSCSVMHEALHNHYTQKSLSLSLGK
light: EIVLTQSPAIMSASPGEKVTITCRASSSVSSSYLHWYQQKSGVSPKLWIYSTSNLASGVPARFSGSGSGTSYSLTINSVEAEDAATYYCQQYSGYRWTFGGGTTLEIKRTVAAPSVFIFPPSDEQLKSGTASVVCLLNNFYPREAKVQWKVDNALQSGNSQESVTEQDSKDSTYSLSSTLTLSKADYEKHKVYACEVTHQGLSSPVTKSFNRGEC
notes: also called Recombinant N6HB426 human chimera IgG4 antibody; human chimeric antibody
Take B1: in experiment [1], the equilibrium dissociation constant (Kd) (usually the concentration at which binding is half-saturated) amounted to 129 pM; the dissociation rate constant (koff) (usually the first-order rate constant of dissociation) is 1.73e-07 s⁻¹; the on-rate (kon) – broadly, the second-order rate constant of association – was determined as 1340 M⁻¹ s⁻¹. In experiment [2], the “IC50, inhibition of HBV/NL pseudo-virus infection of HepG2-human NTCP cells” value was found to be 1.7 µg/mL.

B2: N6HB426-20 antibody (antibody produced by hybridoma) (antibody, V domains shown)
VH: QVQLQQSGAELVKPGASVKLSCKASDFTFTEYTIHWIKQMSGQGLEWIGWFYPGSGDIKYSEKFKDKATLTADKSSSTVYMELNRLTSEDSAVYFCARHMRDFRGFYYGRFYFDYWGQGTTLTVSS
VL: EIVLTQSPAIMSASPGEKVTITCRASSSVSSSYLHWYQQKSGVSPKLWIYSTSNLASGVPARFSGSGSGTSYSLTINSVEAEDAATYYCQQYSGYRWTFGGGTTLEIKRA
notes: Mouse IgG purified from the hybridoma supernatant on Protein G; also called N6HB426-20 monoclonal antibody; N6HB426 antibody
Consider B2, for which, in experiment [3], binding was put at a Kd of 38.8 pM, the koff is 3.19e-08 s⁻¹ and the association rate constant (kon) came out at 821 M⁻¹ s⁻¹. In experiment [2], the “IC50, inhibition of HBV/NL pseudo-virus infection of HepG2-human NTCP cells” value is 1.7 µg/mL; the “IC50, inhibition of infection with pseudo-HBV (NanoLuc)” value was 0.27 µg/mL and 1.8 nM; the “IC50, inhibition of live HBV infection of HepG2/NTCP-myc (HBs antigen level)” value lay in the range of 20000 to 30000 pM.

B3: Recombinant N6HB426 mouse IgG2a antibody (antibody)
heavy: QVQLQQSGAELVKPGASVKLSCKASDFTFTEYTIHWIKQMSGQGLEWIGWFYPGSGDIKYSEKFKDKATLTADKSSSTVYMELNRLTSEDSAVYFCARHMRDFRGFYYGRFYFDYWGQGTTLTVSSAKTTAPSVYPLAPVCGGTTGSSVTLGCLVKGYFPEPVTLTWNSGSLSSGVHTFPALLQSGLYTLSSSVTVTSNTWPSQTITCNVAHPASSTKVDKKIEPRGPTIKPCPPCKCPAPNLLGGPSVFIFPPKIKDVLMISLSPIVTCVVVDVSEDDPDVQISWFVNNVEVHTAQTQTHREDYNSTLRVVSALPIQHQDWMSGKEFKCKVNNKDLPAPIERTISKPKGSVRAPQVYVLPPPEEEMTKKQVTLTCMVTDFMPEDIYVEWTNNGKTELNYKNTEPVLDSDGSYFMYSKLRVEKKNWVERNSYSCSVVHEGLHNHHTTKSFSRTPGK
light: EIVLTQSPAIMSASPGEKVTITCRASSSVSSSYLHWYQQKSGVSPKLWIYSTSNLASGVPARFSGSGSGTSYSLTINSVEAEDAATYYCQQYSGYRWTFGGGTTLEIKRADAAPTVSIFPPSSEQLTSGGASVVCFLNNFYPKDINVKWKIDGSERQNGVLNSWTDQDSKDSTYSMSSTLTLTKDEYERHNSYTCEATHKTSTSPIVKSFNRNEC
notes: this is left out as a signal peptide; also called Recombinant mouse IgG2a antibody; N6HB426-20-IgG2a antibody
On to B3, for which, in experiment [3], the affinity, expressed as Kd, was 313 pM; the koff was 2.39e-07 s⁻¹; the kon was 762 M⁻¹ s⁻¹.

The values above are taken from US20240092924A1 (RIKEN, published 2024).
